According to publication PMC8316566:

Target: T1, MRM3 (human (endogenous in HEK293)), Q9HC36
T1 chain: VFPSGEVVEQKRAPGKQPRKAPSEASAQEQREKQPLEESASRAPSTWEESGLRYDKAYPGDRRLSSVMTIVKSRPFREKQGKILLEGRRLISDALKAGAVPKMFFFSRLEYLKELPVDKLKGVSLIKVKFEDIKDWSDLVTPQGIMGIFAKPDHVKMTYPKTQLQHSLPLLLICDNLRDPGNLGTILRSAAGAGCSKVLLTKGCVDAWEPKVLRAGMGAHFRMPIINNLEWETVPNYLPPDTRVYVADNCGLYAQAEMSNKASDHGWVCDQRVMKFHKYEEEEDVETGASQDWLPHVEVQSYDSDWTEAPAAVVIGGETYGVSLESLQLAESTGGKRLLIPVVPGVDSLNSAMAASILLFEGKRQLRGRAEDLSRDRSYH
Assay: cryo-EM structure; native 39S pre-mitoribosomal particles isolated by anti-Flag affinity purification (MALSU1 or GTPBP10 bait; state 1 also with particles from a uL17 bait) from HEK293 cells; single-particle analysis, average resolutions between 3.1 Å and 5.7 Å; factors fitted as rigid-body homology models or crystal structures
Settings: remark: other sources report otherwise

stoichiometry N: 2
B1: MRM3, Q9HC36 41-420 (natural protein)
chain: VFPSGEVVEQKRAPGKQPRKAPSEASAQEQREKQPLEESASRAPSTWEESGLRYDKAYPGDRRLSSVMTIVKSRPFREKQGKILLEGRRLISDALKAGAVPKMFFFSRLEYLKELPVDKLKGVSLIKVKFEDIKDWSDLVTPQGIMGIFAKPDHVKMTYPKTQLQHSLPLLLICDNLRDPGNLGTILRSAAGAGCSKVLLTKGCVDAWEPKVLRAGMGAHFRMPIINNLEWETVPNYLPPDTRVYVADNCGLYAQAEMSNKASDHGWVCDQRVMKFHKYEEEEDVETGASQDWLPHVEVQSYDSDWTEAPAAVVIGGETYGVSLESLQLAESTGGKRLLIPVVPGVDSLNSAMAASILLFEGKRQLRGRAEDLSRDRSYH
